According to patent US20090130195A1 (UNIVERSITY OF SOUTH FLORIDA, published 2009):

Target: T1, protein kinase C-iota (PKC-ι) (human, UniProt P41743 2-596)
T1 construct: Endogenous protein immunoprecipitated or blotted from cell lysates; also called PKC-i
T1 sequence (looked up): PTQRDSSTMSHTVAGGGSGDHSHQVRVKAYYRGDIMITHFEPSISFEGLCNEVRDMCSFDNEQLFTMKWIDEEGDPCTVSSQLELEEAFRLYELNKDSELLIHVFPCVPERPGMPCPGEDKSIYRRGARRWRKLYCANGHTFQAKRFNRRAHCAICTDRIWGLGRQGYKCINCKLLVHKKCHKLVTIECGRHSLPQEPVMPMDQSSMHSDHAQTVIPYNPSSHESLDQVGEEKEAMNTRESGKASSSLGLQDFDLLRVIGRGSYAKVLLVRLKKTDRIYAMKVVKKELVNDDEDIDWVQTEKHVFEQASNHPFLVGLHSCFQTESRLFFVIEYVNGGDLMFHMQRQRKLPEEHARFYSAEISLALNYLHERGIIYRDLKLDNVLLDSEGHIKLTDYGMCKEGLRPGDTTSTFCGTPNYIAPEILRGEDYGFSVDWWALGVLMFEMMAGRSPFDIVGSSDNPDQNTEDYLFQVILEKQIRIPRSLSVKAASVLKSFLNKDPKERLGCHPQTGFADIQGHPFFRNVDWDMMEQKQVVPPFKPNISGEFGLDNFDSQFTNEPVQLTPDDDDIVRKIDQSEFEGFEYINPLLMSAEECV
Assay: Immunoprecipitation of Bad (200 µg protein) from RWPE-1 and DU-145 cells treated with control siRNA or PKC-ι siRNA, then immunoblot
Procedure: PKC-ι is overexpressed in non-small cell lung cancer cells (NSCLC) and it has been reported to phosphorylate Bad at multiple sites for cell survival. To test whether PKC-ι can directly phosphorylate endogenous Bad, Bad protein (200 μg) was immunoprecipitated from control siRNA and PKC-ι siRNA treated (incubation time 24 h) RWPE-1 and DU-145 cells. Normal rabbit IgG agarose conjugate (5 μg) was used as a negative control.
A similar experiment was performed with DU-145 (FIG. 8A, third column). First, we investigated if PKC-ι associates with Bad. […] However, we observed an increase in phosphorylation of Bad ser-112, no significant changes in p-Bad (ser-136) and p-Bad (ser-155).

B1: Bad (other, UniProt Q92934 1-168, looked up)
chain: MFQIPEFEPSEQEDSSSAERGLGPSPAGDGPSGSGKHHRQAPGLLWDASHQQEQPTSSSHHGGAGAVEIRSRHSSYPAGTEDDEGMGEEPSPFRGRSRSAPPNLWAAQRYGRELRRMSDEFVDSFKKGLPRPKSAGTATQMRQSSSWTRVFQSWWDRNLGRGSSAPSQ
notes: Endogenous protein from human prostate cell lines; Its phosphorylation (ser-112, ser-136, ser-155) varies with cell line and treatment; also called Bad protein
- binding result: no binding
